Assay in all cases: Phosphatase assay with ENDY(P)INASL as substrate
Type in all cases: biochemical

For one test, the target named is T1, RPTPα (Homo sapiens, UniProt P18433).
T1 construct: made in house; host or cells: Sf9 cells (baculovirus)
The essentials:
(§1)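 Enzyme, phosphopeptide and effectors are combined in buffer M6, then incubated 10 minutes at 30° C. Acid-washed charcoal in HCl, pyrophosphate and phosphate stops the reaction. After centrifugation, supernatant radioactivity is measured; enzymes were from Sf9 cells (TC.PTP, RPTPα), placenta (PTP1B, 37 kDa) or spleen (CD45).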

The next test deals with T2, TCΔC11.PTP (Homo sapiens, UniProt P17706).
T2 construct: both the wild type and truncated forms of the T-cell phosphatase; made in house; host or cells: Sf9 cells (baculovirus)
T2 sequence (P17706 1-317 limits assumed): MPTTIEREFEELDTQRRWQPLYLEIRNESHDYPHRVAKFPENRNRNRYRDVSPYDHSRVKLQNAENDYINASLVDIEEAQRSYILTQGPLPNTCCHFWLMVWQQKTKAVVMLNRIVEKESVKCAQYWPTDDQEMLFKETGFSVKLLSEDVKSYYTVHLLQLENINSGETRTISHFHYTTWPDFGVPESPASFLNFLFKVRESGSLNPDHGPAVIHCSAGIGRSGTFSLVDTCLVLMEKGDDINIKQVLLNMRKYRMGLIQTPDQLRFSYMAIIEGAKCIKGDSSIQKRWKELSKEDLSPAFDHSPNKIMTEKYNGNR
The essentials:
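Sf9-expressed TC.PTP, TCΔC11.PTP and RPTPα, plus placental 37 kDa PTP1B, incubated with phosphopeptide ENDY(P)INASL and effectors in buffer M6 for 10 min at 30° C. Reaction stopped with acidic Norit A charcoal suspension; released radioactivity counted in cleared supernatant.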

The target of another test is T3, TC.PTP (Homo sapiens, UniProt P17706).
T3 construct: made in house; host or cells: Sf9 cells (baculovirus)
T3 sequence (P17706 1-415): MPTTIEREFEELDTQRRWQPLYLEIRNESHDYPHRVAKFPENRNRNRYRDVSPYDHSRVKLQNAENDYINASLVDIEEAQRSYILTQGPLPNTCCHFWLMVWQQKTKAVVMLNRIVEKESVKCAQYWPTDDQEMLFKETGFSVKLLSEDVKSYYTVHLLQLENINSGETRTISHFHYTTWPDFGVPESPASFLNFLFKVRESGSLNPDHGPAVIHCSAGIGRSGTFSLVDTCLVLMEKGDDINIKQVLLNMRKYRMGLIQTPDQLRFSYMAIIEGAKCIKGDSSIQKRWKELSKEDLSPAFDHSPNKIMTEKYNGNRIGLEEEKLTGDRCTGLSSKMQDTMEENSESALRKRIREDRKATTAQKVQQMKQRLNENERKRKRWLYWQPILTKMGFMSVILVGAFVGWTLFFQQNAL
The note with it: TC20. The essentials:
as §1

[1] abbreviates: non-linear regression of substrate saturation curves, mean of two experiments.
[2] abbreviates: one unit = release of 1 nmol phosphate per minute.

The record followed here is patent publication US5739278A, “Compositions for protein tyrosine phosphatases” (University of Washington, priority 1995, dated 1998).

Where no end group is shown, it is not given here. [ ]: non-standard residue; d: D form. pY = N[C@@H](Cc1ccc(OP(=O)(O)O)cc1)C(=O)O

T1 sequence (P18433 20-802): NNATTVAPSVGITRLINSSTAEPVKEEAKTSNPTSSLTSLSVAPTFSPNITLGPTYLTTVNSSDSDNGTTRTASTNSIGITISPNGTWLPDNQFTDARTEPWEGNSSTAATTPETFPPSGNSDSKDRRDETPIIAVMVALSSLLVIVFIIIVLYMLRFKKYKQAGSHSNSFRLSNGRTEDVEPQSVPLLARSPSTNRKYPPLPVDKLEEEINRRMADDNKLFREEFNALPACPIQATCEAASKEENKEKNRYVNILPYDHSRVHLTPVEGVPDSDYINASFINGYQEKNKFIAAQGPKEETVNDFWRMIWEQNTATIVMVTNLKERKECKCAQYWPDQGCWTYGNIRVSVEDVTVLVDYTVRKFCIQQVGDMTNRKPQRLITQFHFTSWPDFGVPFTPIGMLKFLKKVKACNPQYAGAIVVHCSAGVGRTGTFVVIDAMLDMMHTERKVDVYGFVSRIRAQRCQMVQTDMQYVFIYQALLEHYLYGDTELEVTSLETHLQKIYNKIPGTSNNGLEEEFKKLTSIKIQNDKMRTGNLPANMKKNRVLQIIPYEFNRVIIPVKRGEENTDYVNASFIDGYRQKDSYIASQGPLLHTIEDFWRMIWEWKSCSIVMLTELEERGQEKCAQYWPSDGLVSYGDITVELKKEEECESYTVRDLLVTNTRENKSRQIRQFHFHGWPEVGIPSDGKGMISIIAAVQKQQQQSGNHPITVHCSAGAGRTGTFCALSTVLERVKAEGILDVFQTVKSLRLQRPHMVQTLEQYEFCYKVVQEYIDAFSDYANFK

As usually defined, the Km is the concentration of substrate that gives half-maximal velocity. On to “ENDY(P)INASL: ENDYINASL phosphorylated on its tyrosine residue (32P), used as PTP substrate (END[pY]INASL; also: phosphate 32P-labelled)”, for which the results for the Michaelis constant (Km) in the test with RPTPα (setting [1]), in the test with TCΔC11.PTP (setting [1]) and with TC.PTP (setting [1]) were 32.5 ± 3.06 µM, 1 ± 0.4 µM and 1.13 ± 0.14 µM, respectively. Also, the figures for the Vmax in the test with RPTPα (setting [2]), with TCΔC11.PTP (setting [2]) and in the test with TC.PTP (setting [2]) were 1038 +/- 88 U/mg, 13374 +/- 970 U/mg and 14221 +/- 7104 U/mg, respectively.
